Reference: the nanobody polyreactivity screen of Harvey et al. (2022)

Assay: yeast display, Sf9 membrane polyspecificity reagent, FACS + sequencing; frameworks hold sequencing errors
Summary of the method: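 Nanobodies came from a synthetic yeast display library in Saccharomyces cerevisiae BJ5465, induced with galactose for 36–48 hours and stained for 1 hour at 4 °C with 10% biotinylated, detergent-solubilized Sf9 membrane reagent. Cells were enriched on streptavidin microbeads and then FACS-sorted, with low and high (top ~1%) gates set on anti-HA fluorescence for expression and streptavidin fluorescence for reagent binding. Each polyreactivity label reflects the gate a clone came from. Genes were amplified by colony PCR, sequenced by MiSeq 2 × 250 and filtered by CDR length.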

| Sequence | polyreactivity (PSR sort gate) |
| --- | --- |
| QVQLVESGGGLVQAGGSLRLSCAASGITFVYYAMGWYRQAPGKERELVAAITSDGGSTYYADSVKGRFTISRDNAKNTVYLQMNSLKPEDTAVYYCAAEWTSWSWWYGWYEFDYWGQGTQVTVSS | high polyreactivity |
| QVQLVESGGGLVQAGGSLRLSCAASGITFVYYAMGWYRQAPGKERELVASISSGGSTYYADSVKGRFTISRDNAKNTVYLQMNSLKPEDTAVYYCAAPTGWYPAYCEYEYWGQGTQVTVSS | low polyreactivity |
| QVQLVESGGGLVQAGGSLRLSCAASGITFVYYVMGWYRQAPGKERELVAGISSGGSTYYADSVKGRFTISRDNAKNTVYLQMNSLKPEDTAVYYCAAVSTPYYGHVKRYYYWGQGTQVTVSS | high polyreactivity |
| QVQLVESGGGLVQAGGSLRLSCAASGITFWGYAMGWYRQAPGKEREFVARINWSGGRTYYAESVKGRFTISRDNAKNTVYLQMNSLKPEDTAVYYCAATSLIYGYRTYDYWGQGTQVTVSS | high polyreactivity |
| QVQLVESGGGLVQAGGSLRLSCAASGITFWGYAMGWYRQAPGKEREFVARINWSGGRTYYAESVKGRFTISRDNAKNTVYLQMNSLKPEDTAVYYCNVVLRSVVSGDYWVQGTQVTVSS | high polyreactivity |
| QVQLVESGGGLVQAGGSLRLSCAASGITFWPYAMGWYIQAPGKERELVAAIRASAGRTYYADSVKGRFTISRDNAKNTVYLQMNSLKPEDTAVYYCNAYGRYGKFRVEYDYWGQGTQVTVSS | low polyreactivity |
| QVQLVESGGGLVQAGGSLRLSCAASGITFWRYAMGWYRQAPGKERELVAAIDWSGGDTYYADSVKGRFTISRDNAKNTVYLQMNRLKPEDTAVYYCATDRYAYKLYDYWGQGTQVTVSS | low polyreactivity |
| QVQLVESGGGLVQAGGSLRLSCAASGITFWSNAMGWYRQAPGKERELVAAITSSGGSAYYADSVKGRFTISRDNAKNTVYLQMNSLKPEDTAVYYCAAPISRSAGWDSYDYWGQGTQVTVSS | low polyreactivity |
| QVQLVESGGGLVQAGGSLRLSCAASGITFWVYAMGWYRQSPGKESELVATISRSGGRTYYADSVKGRFTISRDNAKTTVYLQMNSLKPEDTAVYYCAARYRNVLGYDYDFWGQGTQVTVSS | high polyreactivity |
| QVQLVESGGGLVQAGGSLRLSCAASGITFWYNAMGWYRQAPGKERELVAAISGGGGSTYYADSVKGRFTISRDNAMNTVYLQMNSLKPEDTAVYYCAARQVARVYSGRYGYWGQGTQVTVSS | high polyreactivity |
| QVQLVESGGGLVQAGGSLRLSCAASGITFYDNAMGWYRQAPGKERELVAGISSGGRTYYADSVKGRFTISRDNAKNTVYLQMNSLKPEDTAVYYCNAASLVAYLARLGRDYWGQGTQVTVSS | low polyreactivity |
| QVQLVESGGGLVQAGGSLRLSCAASGITFYDNVMGWYRQAPGKERELVAAITSGGSTNYGDSVKGRFTFSRDNAKNTVYLQMNSLKPEETAVYYCAAQPRVVYEFPYRYGYWGQGTQVTVSS | low polyreactivity |
| QVQLVESGGGLVQAGGSLRLSCAASGITFYDYAMGWYRQAPGKERELVAAISGGGITYYADSVKGRFTISRDNAKNTVYLQMNSLKPEDTAVYYCAAERYSPSVGYDYWGQGTQVTVSS | low polyreactivity |
| QVQLVESGGGLVQAGGSLRLSCAASGITFYDYDMGWYIQAPGKERELVADISYSGGGTYYADSVKGRFTISRDNAKNTVYLQMNSLKPEDTAVYYCAADSQRYYGDYYWGQGTQVTVSS | high polyreactivity |
| QVQLVESGGGLVQAGGSLRLSCAASGITFYEYAMGWYRQAHGKERELVAAISQSGGSTYYADSVKGRFTISRDNAKNTVYLQMNSLKPEDTAVYYCAADIKWSIRRAYDYWGQGTQVTVSS | high polyreactivity |
| QVQLVESGGGLVQAGGSLRLSCAASGITFYEYAMGWYRQAPGKERELVAAITSGGTTNYADSVKGRFTISRDNAKNTVYLQMNSLKPEDTAVYYCAKDEGEGYDYWGQGTQVTVSS | low polyreactivity |
| QVQLVESGGGLVQAGGSLRLSCAASGITFYFYAMGWYRQAPGKERELVAAISGSSGSTYYADSVKGRFTISRDNAKNTVYLQMNSLKPEDTAVYYCAAYNRWSGGFEYWGQGTQVTVSS | high polyreactivity |
| QVQLVESGGGLVQAGGSLRLSCAASGITFYFYTMGWYRPAPGKERELVAAITSSGGTTYYADSVKGRFTISRDNAKNTVYLQMNSLKPEDTAVYYCAARRWYQSRRGGFDYWGQGTQVTVSS | high polyreactivity |
| QVQLVESGGGLVQAGGSLRLSCAASGITFYGYAMGWYRPAPGKERELVARITISGRTNYADYVKGRFTISRDNAKNTVYLQMNSLKPEDTAVYYCATLVHWSYPYYYWGQGTQVTVSS | high polyreactivity |
| QVQLVESGGGLVQAGGSLRLSCAASGITFYGYAMGWYRQAPGKERELVAAISESGGSTYYADSVKGRFTISRDNAKNSVYLQMNRLKEEDTAVYYCASQGYSVYWYSNYWGQCTQVTVSS | low polyreactivity |
| QVQLVESGGGLVQAGGSLRLSCAASGITFYGYAMGWYRQAPGKERELVAAISESGGSTYYADSVKGRFTISRDNAKNTVYLQMNSLKPEDTAVYYCNAESYSTWSFGHRYEYDYWGQGTQVTVSS | low polyreactivity |
| QVQLVESGGGLVQAGGSLRLSCAASGITFYGYAMGWYRQAPGKERELVAVITSSGSSTYYADSVKGRFTISRDNAKNTVYLQMNSLKPEDTAVYYCNARPGRRSLRSRTYDYWGQGTQVTVSS | high polyreactivity |

| Sequence | polyreactivity (PSR sort gate) |
| --- | --- |
| QVQLVESGGGLVQAGGSLRLSCAASGITFYGYVMGWYRQAPGKERELVAAISVRGGSTYYADSVKGRFTISRDNAKNTVYLQMNSLKPEDTAVYYSAAWSYAYYYRLRYVSHDYWRQGTQVTVSS | high polyreactivity |
| QVQLVESGGGLVQAGGSLRLSCAASGITFYHNAMGWYRPAPRKERELVATISRRGGRTYYADSVKGRFTISRDNAKNTVYLQMNSLKPEDTAVYYCAAAQKQSRYDYWGQGTQVTVSS | high polyreactivity |
| QVQLVESGGGLVQAGGSLRLSCAASGITFYHYAMGWYRQAPGKEREFVASITSSGGSTYYADSVKGRFTISRDNAKNTVYLQMNSLKPDDSAVYYCAARGYNPYGRKVGYLGQGTQVTVSS | high polyreactivity |
| QVQLVESGGGLVQAGGSLRLSCAASGITFYHYAMGWYRQAPGKERELVAAISRSGGSTSYADSVMGRFTISRDNAKNTVYLQMNSLKPEDTAVYYCAARLVRESEPLGYWGQGTQVTVSS | high polyreactivity |
| QVQLVESGGGLVQAGGSLRLSCAASGITFYHYAMGWYRQAPGKERELVATISSRGGTTYYADSVKGRFTISRDNAKNTVYLQMNSLKPEDTAVYYCADRTWIIYPVSKYDSWGQGTQVTVSS | high polyreactivity |
| QVQLVESGGGLVQAGGSLRLSCAASGITFYINAMGWSRQAPRKERALLAGISSGGSTNYADSVKGRFTISRDNAKNTVYLQMNSLKPEDTAVYYCWVSRTYHLDYWGQGTQVTVSS | low polyreactivity |
| QVQLVESGGGLVQAGGSLRLSCAASGITFYINGMGWYRQAPGKEREFVAAIYDGVNTYYADSVKGRFTISRDNAKNTVYLQMNSLKPEDTAVYYCAADYPPARWEMEYWGQGTQVTVSS | low polyreactivity |
| QVQLVESGGGLVQAGGSLRLSCAASGITFYKYAMGWYRQAPGKERELVAAITSTGGRTYYADSVKGRFTISGDNAKNSVYLQMNSLKPEDTAVYYCAKVFNQFIEHDYWGQGTQVTVSS | low polyreactivity |
| QVQLVESGGGLVQAGGSLRLSCAASGITFYKYVMGWYRKAPGKERELVAAISSVGSTYYADSVKGRFTISRDNAKNTVYLQMNSLKPEDTAVYYCAAKYWKWYHYGFGYWGQGTQVTVSS | high polyreactivity |
| QVQLVESGGGLVQAGGSLRLSCAASGITFYKYVMGWYRQAPGKERELVAAISSVGSTYYADSVKGRFTISRDNAKNTVYLQMNSLKPEDTAVYYCAAKYWKWYHYGFGYWGQGTQVTVSS | high polyreactivity |
| QVQLVESGGGLVQAGGSLRLSCAASGITFYRNAMGWYRQAPGKEMELVAAITWNGGRTYYADSVKGRFTISRDNAKNTVYLQMNSLKPEDTAVYYCAADSGTRNLASYRYYYWGQATQVTVSS | low polyreactivity |
| QVQLVESGGGLVQAGGSLRLSCAASGITFYRNAMGWYRQAPGKERELVAAIDVGDGTYYADSVKGRFTISRDNAKNSVYFQMNSLKPEDTAVYYCNKTFLFLEYDSWGQGTQVTVSS | low polyreactivity |
| QVQLVESGGGLVQAGGSLRLSCAASGITFYRNAMGWYRQAPGKERELVAAIDVGDGTYYADSVKGRFTISRDNAKNTDYLQMNSLKPEDTAVYYCNKTFLFLEYDSWGQGTQVTVSS | low polyreactivity |
| QVQLVESGGGLVQAGGSLRLSCAASGITFYRNAMGWYRQAPGKERELVAAISRRGGITRYADSVKGRFTISRDNAKNTVYLQMNSLKPEDTAVYYCAKAIGSTALRRATEDYWGQGTQVTVSS | high polyreactivity |
| QVQLVESGGGLVQAGGSLRLSCAASGITFYRYAMGWYRQAPGKEREFVAAITWGSTYYADSVKGRFTISRDNAKNTVYLQMTSLKPEDTAVYYCNKKGYTVGATVGYWGQGTQVTVSS | low polyreactivity |
| QVQLVESGGGLVQAGGSLRLSCAASGITFYRYAMGWYRQAPGKERELVAAIRGGGASTYYADSVKGRFTISRDNAKNTVYLQMNSLKPEDTAVYYCAARAARSITNGYWGQGTQVTVSS | high polyreactivity |
| QVQLVESGGGLVQAGGSLRLSCAASGITFYRYAMGWYRQAPGKERELVAAISRSGGSTYYADSVKGRFTISRDNAKNTVYLQMNSLKPEDTAVDYCAAYILGNRDGYDYWGQGTQVTVSS | high polyreactivity |
| QVQLVESGGGLVQAGGSLRLSCAASGITFYRYAMGWYRQAPGKERELVAAISWSGGRTYYADSVKGRFTISRDNAKNTVYLQMNSLKPEDTAVYYCNAYLYPYTRLDYWGQGTQVTVSS | high polyreactivity |
| QVQLVESGGGLVQAGGSLRLSCAASGITFYRYAMGWYRQAPGKERELVATITSGGSTYYADSVKGRFTISRDNAKNTVYLQMNSLKPEDTAVYYCAAESVWTWYYTTAGMDYWGQGTQVTVSS | high polyreactivity |
| QVQLVESGGGLVQAGGSLRLSCAASGITFYRYDMGWYRQAPGKERELVAAISTRGGSTYYADSVKGRFTISRDNAKNTVYLQMNSLKPEDTAVYYCAKERVGTSLPFKDYYWGQGTQVTVSS | low polyreactivity |
| QVQLVESGGGLVQAGGSLRLSCAASGITFYSNAMGWYRPAPGKERELVAAISYRGGSTYYADSVKGRFTISRDNAKNTVYLQMNSLKPEDTAVYYCNKEVDWGWGRISYDSWGQGTQVTVSS | low polyreactivity |
